Reference: paper PMC3605045, “GH1-family 6-P-β-glucosidases from human microbiome lactic acid bacteria” (Acta Crystallographica Section D: Biological Crystallography, 2013)

Target: the molecule itself
Experiment: SEC; Superdex 200 16/60, 20 mM HEPES-NaOH pH 8.0, 250 mM NaCl, 2 mM DTT, proteins ~3 mg/ml, 1 ml/min, calibrated with ferritin, aldolase, conalbumin and ovalbumin; oligomeric state from the elution volume

B1: 6-P-β-glucosidase from Streptococcus mutans UA159 (SmBgl) (enzyme)
chain: SNAMSKLPENFLWGGAVAAHQLEGGWQEGGKGISVADVMTAGRHGVAREITAGVLEGKYYPNHEAIDFYHHYKEDVKLFAEMGFKCFRTSIAWTRIFPKGDEAEPNEAGLQFYDDLFDECLKYGIEPVVTLSHFELPYHLVTEYGGFTNRKVIDFFVHFAEVCFRRYKDKVKYWMTFNEINNQANYQEDFAPFTNSGIVYKEGDDREAIMYQAAHYELVASARAVKIGHAINPNLNIGCMVAMCPIYPATCNPKDILMAQKAMQKRYYFADVHVHGFYPEHIFKYWERKAIKVDFTERDKKDLFEGTVDYIGFSYYMSFVIDAHRENNPYYDYLETEDLVKNPYVKASDWDWQIDPQGLRYALNWFTDMYHLPLFIVENGFGAIDQVEADGMVHDDYRIDYLGAHIKEMIKAVDEDGVELMGYTPWGCIDLVSAGTGEMRKRYGFIYVDKDDEGKGTLKRSPKLSFNWYKEVIASNGDDI
notes: non-natural N-terminal extension left after TEV cleavage of the His6 tag (vector pMCSG7); 6-P-β-glucosidase Bgl of Streptococcus mutans UA159, 477 residues (Met1-Ile477), amplified from genomic DNA; The SAD structure (3pn8) was solved from selenomethionine-labelled protein; source: E. coli BL21 (DE3) Magic, purified (IMAC-I, SEC on Superdex 200, TEV cleavage of the His6 tag, IMAC-II); not shown: …
stoichiometry N: 2
